Experimental data: paper PMC8621148, “Determination of the Protein-Protein Interactions within Acyl Carrier Protein (MmcB)-Dependent Modifications in the Biosynthesis of Mitomycin” (Molecules, 2021)

Key:
MitF, reductase = target: T1, MitF, reductase (Streptomyces lavendulae NRRL 2564, UniProt Q9X5R6 1-257); test: SPR; Biacore 8K, 25 °C; MitB (5000 RU) or MitF (3000 RU) coupled to a CM5 chip in 10 mM NaAc pH 4.0; holo-MmcB flowed over (2.7-43.2 µM on MitB, 0.7-21.6 µM on MitF); conditions: both partners purified
T1 construct: MitF, reductase of the mitomycin C biosynthetic gene cluster, Streptomyces lavendulae NRRL 2564; source: E. coli BL21(DE3), pET30a (pJQK414), purified (Ni-NTA, FPLC); not shown: His6, N-terminal, kept
T1 sequence (looked up): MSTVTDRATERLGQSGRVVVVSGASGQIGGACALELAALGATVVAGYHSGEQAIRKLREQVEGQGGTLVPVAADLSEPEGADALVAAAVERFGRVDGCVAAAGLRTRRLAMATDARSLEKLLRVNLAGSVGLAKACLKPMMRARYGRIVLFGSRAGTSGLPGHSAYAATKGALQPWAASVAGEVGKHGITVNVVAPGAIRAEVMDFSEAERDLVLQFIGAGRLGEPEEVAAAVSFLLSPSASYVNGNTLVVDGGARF

[1] = target: MitB (intact, updated open reading frame), glycosyltransferase (Streptomyces lavendulae NRRL 2564) (UniProt Q9WW09); test: as above

B1: holo-MmcB (acyl carrier protein MmcB, tag-free) (natural protein, Streptomyces lavendulae NRRL 2564, UniProt Q9X5S0 1-93, looked up)
chain: METLTTDKIKDRLRKVLVDSLELSLDPSAVPDEGLVEKLGLDSINTIEFLIWVESEFGIEIADEDLSIKLIDSLDLLAGYVSERVNGVTAPAE
modifications: 4'-phosphopantetheine at Ser43 (holo-form)
notes: MmcB, acyl carrier protein of the mitomycin C biosynthetic gene cluster, Streptomyces lavendulae NRRL 2564; 93 amino acid residues; gene synthesised with codons optimised for E. coli; The methods name the holo form for both the pull-down and SPR; also called ACP; tag-free MmcB; not shown: His6, C-terminal, cleaved
- stoichiometry N (MitF, reductase): 1
- Kd [1]: 578 nM
- koff [1]: 0.113 s⁻¹
- kon [1]: 195000 M⁻¹ s⁻¹
- stoichiometry N [1]: 1
